Test results reported in publication PMC10543288, “Loss of Bmp2 impairs odontogenesis via dysregulating pAkt/pErk/GCN5/Dlx3/Sp7” (Research Square, 2023).

Target: T1, GST full-length Sp7 (mouse, UniProt Q8VI67 1-428)
T1 construct: Sp7 (Osterix, Osx), mouse cDNA, full length; also called GST-Sp7; Osterix
Experiment: co-IP; purified GST fusion proteins incubated together, immunoprecipitated with anti-Sp7, anti-Dlx3 or anti-GCN5 antibody and protein G agarose beads, IgG as negative control, detected by Western blotting
Conditions: both partners purified

T1 sequence (Q8VI67 whole entry): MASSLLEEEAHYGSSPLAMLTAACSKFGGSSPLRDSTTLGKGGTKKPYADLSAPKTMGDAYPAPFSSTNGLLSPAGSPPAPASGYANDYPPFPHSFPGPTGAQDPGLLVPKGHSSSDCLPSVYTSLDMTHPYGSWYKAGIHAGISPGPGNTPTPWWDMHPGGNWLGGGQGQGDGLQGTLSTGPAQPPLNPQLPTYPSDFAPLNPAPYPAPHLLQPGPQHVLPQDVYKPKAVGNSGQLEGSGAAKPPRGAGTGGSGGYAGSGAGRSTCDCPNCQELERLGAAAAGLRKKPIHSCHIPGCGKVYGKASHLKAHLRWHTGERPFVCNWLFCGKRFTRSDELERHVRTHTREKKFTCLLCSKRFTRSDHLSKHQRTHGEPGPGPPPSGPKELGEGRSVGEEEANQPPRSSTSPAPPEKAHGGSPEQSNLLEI

B1: GST full-length Dlx3 (natural protein)
chain: not shown
notes: Dlx3, mouse cDNA, full length; also called GST-Dlx3
B1: binds.
